Test results taken from the supplement of paper PMC11246515.
± gives the standard deviation of the averaged measurements.

Experiment: total protein half-life in vivo (active degradation + dilution); higher = more stable protein
[1] = E. coli NCM3722 delta-clpP delta-lon delta-hslV, growth: N-lim chemostat, doubling time 6 h
[2] = E. coli NCM3722 delta-clpP, growth: N-lim chemostat, doubling time 6 h
[3] = E. coli NCM3722 delta-hslV, growth: N-lim chemostat, doubling time 6 h
[4] = E. coli NCM3722 delta-lon, growth: N-lim chemostat, doubling time 6 h
[5] = E. coli NCM3722 delta-smpB, growth: N-lim chemostat, doubling time 6 h
[6] = wild type E. coli NCM3722, growth: C-lim chemostat, doubling time 3 h
[7] = wild type E. coli NCM3722, growth: C-lim chemostat, doubling time 6 h
[8] = wild type E. coli NCM3722, growth: C-lim chemostat, doubling time 12 h
[9] = wild type E. coli NCM3722, growth: N-lim chemostat, doubling time 6 h
[10] = wild type E. coli NCM3722, growth: N-lim chemostat, doubling time 12 h
[11] = wild type E. coli NCM3722, growth: P-lim chemostat, doubling time 6 h
[12] = wild type E. coli NCM3722, growth: P-lim chemostat, doubling time 12 h

Sequence: MKCSWREGNKIQLLENGEQYYPAVFKAIGEAQERIILETFIWFEDDVGKQLHAALLAAAQRGVKAEVLLDGYGSPDLSDEFVNELTAAGVVFRYYDPRPRLFGMRTNVFRRMHRKIVVIDARIAFIGGLNYSAEHMSSYGPEAKQDYAVRLEGPIVEDILQFELENLPGQSAARRWWRRHHKAEENRQPGEAQVLLVWRDNEEHRDDIERHYLKMLTQARREVIIANAYFFPGYRFLHALRKAARRGVRIKLIIQGEPDMPIVRVGARLLYNYLVKGGVQVFEYRRRPLHGKVALMDDHWATVGSSNLDPLSLSLNLEANVIIHDRHFNQTLRDNLNGIIAADCQQVDETMLPKRTWWNLTKSVLAFHFLRHFPALVGWLPAHTPRLAQVDPPAQPTMETQDRVETENTGVKP [P0AA84]
- total protein half-life in vivo [1]: 5.09 ± 0.17 h
- total protein half-life in vivo [2]: 4.47 ± 0.2 h
- total protein half-life in vivo [3]: 3.731 ± 0.026 h
- total protein half-life in vivo [4]: 4.02 ± 0.65 h
- total protein half-life in vivo [5]: 3.99 ± 0.16 h
- total protein half-life in vivo [6]: 2.78 ± 0.092 h
- total protein half-life in vivo [7]: 5.37 ± 2.1 h
- total protein half-life in vivo [8]: 5.9 ± 1.9 h
- total protein half-life in vivo [9]: 3.75 ± 0.25 h
- total protein half-life in vivo [10]: 6.19 ± 0.53 h
- total protein half-life in vivo [11]: 5.17 ± 1.5 h
- total protein half-life in vivo [12]: 9.94 ± 4.7 h

Sequence: MAGPVLYQDRAMKQITFAPRNHLLTNTNTWTPDSQWLVFDVRPSGASFTGETIERVNIHTGEVEVIYRASQGAHVGVVTVHPKSEKYVFIHGPENPDETWHYDFHHRRGVIVEGGKMSNLDAMDITAPYTPGVLRGGSHVHVFSPNGERVSFTYNDHVMHELDPALDLRNVGVAAPFGPVNVQKQHPREYSGSHWCVLVSKTTPTPQPGSDEINRAYEEGWVGNHALAFIGDTLSPKGEKVPELFIVELPQDEAGWKAAGDAPLSGTETTLPAPPRGVVQRRLTFTHHRAYPGLVNVPRHWVRCNPQGTQIAFLMRDDNGIVQLWLISPQGGEPRQLTHNKTDIQSAFNWHPSGEWLGFVLDNRIACAHAQSGEVEYLTEHHANSPSADAVVFSPDGQWLAWMEGGQLWITETDR
- total protein half-life in vivo [1]: 5.27 ± 0.21 h
- total protein half-life in vivo [2]: 4.73 ± 0.52 h
- total protein half-life in vivo [3]: 4.97 ± 0.094 h
- total protein half-life in vivo [4]: 4.8 ± 0.15 h
- total protein half-life in vivo [5]: 4.67 ± 0.09 h
- total protein half-life in vivo [6]: 3.17 ± 0.043 h
- total protein half-life in vivo [7]: 5.92 ± 0.44 h
- total protein half-life in vivo [8]: 11.1 ± 1.4 h
- total protein half-life in vivo [9]: 4.8 ± 0.56 h
- total protein half-life in vivo [10]: 8.45 ± 0.1 h
- total protein half-life in vivo [11]: 6.23 ± 0.21 h
- total protein half-life in vivo [12]: 11.3 ± 0.79 h

Sequence: MATTTAECLTQETMDYHALNAMLNLYDSAGRIQFDKDRQAVDAFIATHVRPNSVTFSSQQQRLNWLVNEGYYDESVLNRYSRDFVITLFTHAHTSGFRFQTFLGAWKFYTSYTLKTFDGKRYLEDFADRVTMVALTLAQGDETLALQLTDEMLSGRFQPATPTFLNCGKQQRGELVSCFLLRIEDNMESIGRAVNSALQLSKRGGGVAFLLSNLREAGAPIKRIENQSSGVIPVMKMLEDAFSYANQLGARQGAGAVYLHAHHPDILRFLDTKRENADEKIRIKTLSLGVVIPDITFHLAKENAQMALFSPYDVERVYGKPFADVAISQHYDELVADERIRKKYLNARDFFQRLAEIQFESGYPYIMYEDTVNRANPIAGRINMSNLCSEILQVNSASEYDENLDYTRTGHDISCNLGSLNIAHTMDSPDFARTVETAVRGLTAVSDMSHIRSVPSIEAGNAASHAIGLGQMNLHGYLAREGIAYGSPEALDFTNLYFYAITWHALRTSMLLARERGETFAGFKQSRYASGEYFSQYLQGNWQPKTAKVGELFTRSGITLPTREMWAQLRDDVMRYGIYNQNLQAVPPTGSISYINHATSSIHPIVAKVEIRKEGKTGRVYYPAPFMTNENLALYQDAYEIGAEKIIDTYAEATRHVDQGLSLTLFFPDTATTRDINKAQIYAWRKGIKTLYYIRLRQMALEGTEIEGCVSCAL
- total protein half-life in vivo [1]: 4.76 ± 0.29 h
- total protein half-life in vivo [2]: 4.61 ± 2.7 h
- total protein half-life in vivo [7]: 2.61 ± 0.17 h
- total protein half-life in vivo [8]: 2.88 ± 1.4 h

Sequence: MKAIDNQIRNISSSHQDKHSDKVNSHQHHGKVDKTHRAKIVEFDKLDNDSQIDNDFGLHIIYFLQHGHWKVNDRSHQMEKVWFYNSEPSIDIQEYNRFADNTTDTFIFTIIPDNNHVLKLSSPITVTVECKGGYYFINSSGDKSDIIYKVDGLSIIARNFFTLLSGNFKPDWRWDVSKETFTKEKFDSYVKSVFSKIDFYKQCGVINPQNANTAYFGDTDGRVGAVLYALLVSGHIGIREKGWSLLCELLKHEEMASSAYKHKNNKVLYDLLNTRDMILNELHQHVFLKDDAITPCIFLGDHTGDRFSTIFGDKYILTLLNSMRNMEGNKDSRINKNVVVLAGNHEINFNGNYTARLANHKLSAGDTYNLIKTLDVCNYDSERQVLTSHHGIIRDEEKKCYCLGALQVPFNQMKNPTDPEELANIFNKKHKEHMDDPLFHLIRSNTLKPTPVYANYFDNTTDFRPARERIFICGETLKGEDPSKYIRQKYGHHGPGVDHNQQFDNGIMGLNSLKEARDKNNKIIYSSGLSCFQLH
- total protein half-life in vivo [2]: 2.18 ± 0.21 h
- total protein half-life in vivo [3]: 2.35 ± 0.097 h
- total protein half-life in vivo [4]: 2.82 h
- total protein half-life in vivo [5]: 2.53 h
- total protein half-life in vivo [6]: 2.6 ± 0.029 h
- total protein half-life in vivo [7]: 4.34 ± 0.27 h
- total protein half-life in vivo [8]: 6 h
- total protein half-life in vivo [9]: 2.27 ± 0.28 h
- total protein half-life in vivo [10]: 3.75 h
- total protein half-life in vivo [11]: 5.32 ± 0.097 h
- total protein half-life in vivo [12]: 8.76 ± 0.24 h

Sequence: MLNRYPLWKYVMLIVVIVIGLLYALPNLFGEDPAVQITGARGVAASEQTLIQVQKTLQEEKITAKSVALEEGAILARFDSTDTQLRAREALMGVMGDKYVVALNLAPATPRWLAAIHAEPMKLGLDLRGGVHFLMEVDMDTALGKLQEQNIDSLRSDLREKGIPYTTVRKENNYGLSITFRDAKARDEAIAYLSKRHPDLVISSQGSNQLRAVMSDARLSEAREYAVQQNINILRNRVNQLGVAEPVVQRQGADRIVVELPGIQDTARAKEILGATATLEFRLVNTNVDQAAAASGRVPGDSEVKQTREGQPVVLYKRVILTGDHITDSTSSQDEYNQPQVNISLDSAGGNIMSNFTKDNIGKPMATLFVEYKDSGKKDANGRAVLVKQEEVINIANIQSRLGNSFRITGINNPNEARQLSLLLRAGALIAPIQIVEERTIGPTLGMQNIEQGLEACLAGLLVSILFMIIFYKKFGLIATSALIANLILIVGIMSLLPGATLSMPGIAGIVLTLAVAVDANVLINERIKEELSNGRTVQQAIDEGYRGAFSSIFDANITTLIKVIILYAVGTGAIKGFAITTGIGVATSMFTAIVGTRAIVNLLYGGKRVKKLSI [P0AG90]
- total protein half-life in vivo [1]: 7.05 ± 0.45 h
- total protein half-life in vivo [2]: 6.58 ± 0.21 h
- total protein half-life in vivo [3]: 6.5 ± 0.39 h
- total protein half-life in vivo [4]: 6.33 ± 0.36 h
- total protein half-life in vivo [5]: 5.92 ± 0.46 h
- total protein half-life in vivo [6]: 3.51 ± 0.36 h
- total protein half-life in vivo [7]: 5.86 ± 0.32 h
- total protein half-life in vivo [8]: 12.6 ± 2 h
- total protein half-life in vivo [9]: 6.19 ± 0.036 h
- total protein half-life in vivo [10]: 12.1 ± 0.19 h
- total protein half-life in vivo [11]: 6.36 ± 0.41 h
- total protein half-life in vivo [12]: 12.2 ± 0.8 h

Sequence: MTLLASLRDWLKAQQLDAVLLSSRQNKQPHLGISTGSGYVVISRESAHILVDSRYYVEVEARAQGYQLHLLDATNTLTTIVNQIIADEQLQTLGFEGQQVSWETAHRWQSELNAKLVSATPDVLRQIKTPEEVEKIRLACGIADRGAEHIRRFIQAGMSEREIAAELEWFMRQQGAEKASFDTIVASGWRGALPHGKASDKIVAAGEFVTLDFGALYQGYCSDMTRTLLVNGEGVSAESHLLFNVYQIVLQAQLAAISAIRPGVRCQQVDDAARRVITEAGYGDYFGHNTGHAIGIEVHEDPRFSPRDTTTLQPGMLLTVEPGIYLPGQGGVRIEDVVLVTPQGAEVLYAMPKTVLLTGEA
- total protein half-life in vivo [1]: 6.04 h
- total protein half-life in vivo [8]: 3.72 h

Sequence: MRACINNQQIRHHNKCVILELLYRQKRANKSTLARLAQISIPAVSNILQELESEKRVVNIDDESQTRGHSSGTWLIAPEGDWTLCLNVTPTSIECQVANACLSPKGEFEYLQIDAPTPQALLSEIEKCWHRHRKLWPDHTINLALAIHGQVDPVTGVSQTMPQAPWTTPVEVKYLLEEKLGIRVMVDNDCVMLALAEKWQNNSQERDFCVINVDYGIGSSFVINEQIYRGSLYGSGQIGHTIVNPDGVVCDCGRYGCLETVASLSALKKQARVWLKSQPVSTQLDPEKLTTAQLIAAWQSGEPWITSWVDRSANAIGLSLYNFLNILNINQIWLYGRSCAFGENWLNTIIRQTGFNPFDRDEGPSVKATQIGFGQLSRAQQVLGIGYLYVEAQLRQI
- total protein half-life in vivo [1]: 6.39 ± 0.56 h
- total protein half-life in vivo [2]: 6.61 h
- total protein half-life in vivo [3]: 5.18 ± 0.99 h
- total protein half-life in vivo [4]: 5.81 ± 0.79 h
- total protein half-life in vivo [5]: 3.95 ± 0.094 h
- total protein half-life in vivo [6]: > 4 h
- total protein half-life in vivo [7]: 1.97 h
- total protein half-life in vivo [8]: 3 h
- total protein half-life in vivo [9]: 5.48 ± 0.83 h
- total protein half-life in vivo [10]: 7.97 h
- total protein half-life in vivo [11]: 3.12 h
- total protein half-life in vivo [12]: 4.85 h

Sequence: MATTQQSGFAPAASPLASTIVQTPDDAIVAGFTSIPSQGDNMPAYHARPKQSDGPLPVVIVVQEIFGVHEHIRDICRRLALEGYLAIAPELYFREGDPNDFADIPTLLSGLVAKVPDSQVLADLDHVASWASRNGGDVHRLMITGFCWGGRITWLYAAHNPQLKAAVAWYGKLTGDKSLNSPKQPVDIATDLNAPILGLYGGQDNSIPQESVETMRQALRAANAKAEIIVYPDAGHAFNADYRPSYHAASAEDGWQRMLEWFKQYGGKKSL
- total protein half-life in vivo [1]: 4.8 ± 0.66 h
- total protein half-life in vivo [2]: 3.82 ± 0.21 h
- total protein half-life in vivo [3]: 4.01 ± 0.11 h
- total protein half-life in vivo [4]: 4.18 ± 0.37 h
- total protein half-life in vivo [5]: 3.92 ± 0.051 h
- total protein half-life in vivo [6]: 2.59 ± 0.14 h
- total protein half-life in vivo [7]: 4.52 ± 0.53 h
- total protein half-life in vivo [8]: 8.52 ± 2.4 h
- total protein half-life in vivo [9]: 3.85 ± 0.1 h
- total protein half-life in vivo [10]: 5.35 ± 1.5 h
- total protein half-life in vivo [11]: 4.06 ± 0.17 h
- total protein half-life in vivo [12]: 8.35 ± 0.2 h
